For this assay, the target named is histone H4 (in the NCP), unmodified at K20 (human, UniProt P62805 1-103). As to the kind of experiment: cryo-EM structure.

B1: BARD1 (ARD–BRCT), residues 415–777, as tethered to the NCP in BARD1^AB–NCPub (domain or fragment)
chain: KLLPNMAVKRNHRGETLLHIASIKGDIPSVEYLLQNGSDPNVKDHAGWTPLHEACNHGHLKVVELLLQHKALVNTTGYQNDSPLHDAAKNGHVDIVKLLLSYGASRNAVNIFGLRPVDYTDDESMKSLLLLPEKNESSSASHCSVMNTGQRRDGPLVLIGSGLSSEQQKMLSELAVILKAKKYTEFDSTVTHVVVPGDAVQSTLKCMLGILNGCWILKFEWVKACLRRKVCEQEEKYEIPEGPRRSRLNREQLLPKLFDGCYFYLWGTFKHHPKDNLIKLVTAGGGQILSRKPKPDSDVTQTINTVAYHARPDSDQRFCTQYIIYEDLCNYHPERVRQGKVWKAPSSWFIDCVMSFELLPLDS
Take B1: the binding result was “binds”.

(Values after article PMC8680157 (Nature, 2021).)
